Source: article PMC4557345

Molecular target: Drosophila Orai (dOrai), expressed in HEK293T cells (Drosophila) (UniProt Q9U6B8)
Sequence of UniProt Q9U6B8 (Q9U6B8 whole entry): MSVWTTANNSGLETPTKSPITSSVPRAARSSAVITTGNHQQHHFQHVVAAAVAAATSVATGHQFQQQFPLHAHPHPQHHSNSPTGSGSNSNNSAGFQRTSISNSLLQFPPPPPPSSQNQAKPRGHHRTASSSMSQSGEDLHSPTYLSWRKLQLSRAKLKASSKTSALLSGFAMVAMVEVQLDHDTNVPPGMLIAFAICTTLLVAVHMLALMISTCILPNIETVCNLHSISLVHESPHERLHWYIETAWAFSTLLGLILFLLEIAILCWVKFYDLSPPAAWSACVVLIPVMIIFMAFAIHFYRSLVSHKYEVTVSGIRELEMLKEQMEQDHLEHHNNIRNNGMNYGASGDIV

recovery time constant of the light-activated whole-cell current (patch clamp, HEK293T), against dmBACCS2 (fold of dmBACCS2)	Substance
< 0.5	dmBACCS2-N425S
> 100	dmBACCS2-V416L
